“Also recorded” adds a separate entry of the source.

The target in data set [1] is T1, recombinant fibronectin 11A12 domain (EDA) (Homo sapiens, UniProt P02751).
T1 construct: recombinant fibronectin 11A12 domain
Put plainly: Biacore surface plasmon resonance binding analysis. The note with it: SPR, BIAcore X100, CM5 chip coated with recombinant fibronectin 11A12 domain. The procedure: Binding affinity was determined by surface plasmon resonance using a BIAcore X100 instrument using a CM5 chip coated with recombinant fibronectin 11A12 domain. Samples were injected as serial-dilution, using a concentration range from […] to 125 nM.
A general note: In SPR one partner is held on a chip, and binding of the other changes the refractive index at the surface.

Data set [2] can be described thus: Melting temperature (Protein Thermal Shift kit). It is filed as physicochemical. The method, then:
The melting temperature of the different mIL9 conjugates was determined using a StepOne real-Time PCR system in combination with the Protein Thermal Shift kit.

A short description of data set [3]: Storage stability (OD280, SEC, SDS-PAGE). It is filed as physicochemical. The method, then: Storage stability of F8(scFv)-mIL9-F8(scFv) was assessed by size exclusion chromatography profile and analytical SDS-PAGE analysis of the protein after: a) incubation at 37° C. for 3, 5 and 7 days, b) incubation at 4° C. for 7 days and c) a series of 3 freeze and thaw cycles.

In data set [4] the test system is Monocrotaline (MCT) induced pulmonary hypertension (PH) in C57BL/6 mice. Put plainly: Right heart catheterization in MCT induced PH mouse model (Example 3). It is filed as in vivo. The text has this: (§1) Pulmonary Hypertension (PH) was induced in C57BL/6 mice (bodyweight: 25-30 g). The animals were obtained from ZET facility (Zentale Experimentelle Tierhaltung) of the University Hospital Jena (UKJ, Jena, Germany). Prior to PH induction, mice were allowed to acclimatize for at least 7 days with ad libitum access to food and water as well as controlled light/dark cycles. As shown in the overview of the experimental design and treatment schedule (FIG. 6), the following experimental groups were investigated: • sham induced controls (n=6) • MCT induced PH (n=8) • MCT induced PH+MACI (n=7) • MCT induced PH+F8(scFv)-mIL9-F8(scFv) (also named F8-IL9) (n=6) • MCT induced PH+KSF(scFv)-mIL9-KSF(scFv) (also named KSF-IL9) (n=6)
For PH induction, the Monocrotaline (MCT) method was used.
The sham induced controls were injected with 30 μl NaCl not containing MCT at day 1 (single dose; intraperitoneally, i.p.). […] The other 4 experimental groups were injected with MCT to induce PH (single dose; intraperitoneally, i.p.; 60 mg/kg body weight; volume 30 μl). Animals in the MCT induced PH+MACI group received the drug (Macitentan) from day 14 to day 28 (once daily; per os; 15 mg/kg body weight). […]
(§2) Statistical analyses were performed using IBM SPSS statistical software, version 25.0 (IBM SPSS Statistics for Windows. Armonk, N.Y., USA). Data are expressed as mean±standard deviation. […]

Data set [5] shares this test system. Put plainly: Echocardiographic assessment in MCT induced PH mouse model (Example 3). It is filed as in vivo. Conditions: in contrast to untargeted KSF(scFv)-mIL9-KSF(scFv).
From the text: as §1
For PH induction, the Monocrotaline (MCT) method was used. […]
Echocardiographic assessment was performed on day 28 (FIG. 6) using the Vevo 770 Rodent-Ultrasound-System, Visual Sonic, Canada, 17 MHz probe RMV176. […] Body temperature and respiratory rate were continuously monitored. All surrogate parameters of right ventricular (RV) morphology and function were assessed, among others, RV basal and medial diameters (in mm), RV length (in mm), and RV fractional area change (FAC, in %).
as §2

For data set [6] the test system is unchanged. Put plainly: Right heart catheterization in MCT induced PH mouse model (Example 4). It is filed as in vivo. Conditions: in contrast to KSF containing control immunocytokines.
From the text: To induce Pulmonary Hypertension (PH), C57BL/6 mice (bodyweight: 25-30 g) were used. The animals were obtained from ZET facility (Zentrale Experimentelle Tierhaltung) of the University Hospital Jena (UKJ, Jena, Germany). Prior to PH induction, mice were allowed to acclimatize for at least 7 days with ad libitum access to food and water as well as controlled light/dark cycles. In this set of experiments, 50 animals were investigated divided into the following 7 experimental groups: • sham induced controls (n=10) • MCT induced PH (n=8) • MCT induced PH+MACI (n=8) • MCT induced PH+F8mIL9F8 in CrAb format (n=6) • MCT induced PH+KSFmIL9KSF in CrAb format (n=6) • MCT induced PH+F8_(IgG-HC4)-mIL9 (n=6) • MCT induced PH+KSF_(IgG-HC4)-mIL9 (n=6)
For PH induction, the Monocrotaline (MCT, Carl Roth, Germany) method was used.
The sham induced controls were injected with 30 μl NaCl not containing MCT at day 1 (single dose; intraperitoneally, i.p.). […] The other 6 experimental groups were injected with MCT (single dose; intraperitoneally, i.p.; 60 mg/kg body weight; volume 30 μl). Animals in the MCT induced PH+MACI group received the drug (Macitentan, Actelion Pharmaceuticals Ltd.) from day 14 to day 28 (once daily; per os; 15 mg/kg body weight).
Animals in the MCT induced PH+F8mIL9F8 in CrAb format group received F8mIL9F8 3 times on days 14, 16 and 18 (intravenously, i.v.; 200 μg/injection; volume 154 μl). Animals in the MCT induced PH+KSFmIL9KSF in CrAb format group received KSFmIL9KSF 3 times on days 14, 16 and 18 (intravenously, i.v.; 198 μg/injection; volume 182 μl).
Animals in the MCT induced PH+F8_(IgG-HC4)-mIL9 group received F8_(IgG-HC4)-mIL9 3 times on days 14, 16 and 18 (intravenously, i.v.; 261 μg/injection; volume 137 μl). Animals in the MCT induced PH+KSF_(IgG-HC4)-mIL9 group received KSF_IgG-HC4mIL9 3 times on days 14, 16 and 18 (intravenously, i.v.; 258 μg/injection; volume 161 μl).
On day 28 after MCT injection, mice of all experimental groups were deeply anesthetized with a single dose of 100 mg/kg body weight ketamine and 10 mg/kg body weight Xylazin in approximately 60 μl each administered i.p.
Right heart catheterization using a 1.4 F micro conductance pressure-volume catheter (Model SPR-839; Millar Instruments Inc; PowerLab system, ADInstruments Ltd., Oxford, UK) was performed via the right vena jugularis interna to measure the systolic right ventricular pressure and thereby verify the success of the experimental setting. Mice were then sacrificed in deep anesthesia and analgesia to carry out cardiac blood collection after thoracotomy and to harvest the organs.
as §2

For data set [7] the test system is unchanged. Put plainly: Echocardiographic assessment in MCT induced PH mouse model (Example 4). The note with it: in contrast to KSF containing control immunocytokines. It is filed as in vivo. The method, then:
To induce Pulmonary Hypertension (PH), C57BL/6 mice (bodyweight: 25-30 g) were used. The animals were obtained from ZET facility (Zentrale Experimentelle Tierhaltung) of the University Hospital Jena (UKJ, Jena, Germany). Prior to PH induction, mice were allowed to acclimatize for at least 7 days with ad libitum access to food and water as well as controlled light/dark cycles. […]
Echocardiographic assessment was performed on day 28 using the Vevo 770 Rodent-Ultrasound-System, Visual Sonic, Canada, 17 MHz probe RMV176. […] Body temperature and respiratory rate were continuously monitored. All surrogate parameters of right ventricular (RV) morphology and function were assessed, among others, RV basal and medial diameters (in mm), RV length (in mm), tricuspid annular plane systolic excursion (TAPSE, in mm), right atrial area (RA area, in mm^2) or main pulmonary artery diameter (MPA, in mm).
as §2

T1 sequence (P02751 1629-1905 limits assumed): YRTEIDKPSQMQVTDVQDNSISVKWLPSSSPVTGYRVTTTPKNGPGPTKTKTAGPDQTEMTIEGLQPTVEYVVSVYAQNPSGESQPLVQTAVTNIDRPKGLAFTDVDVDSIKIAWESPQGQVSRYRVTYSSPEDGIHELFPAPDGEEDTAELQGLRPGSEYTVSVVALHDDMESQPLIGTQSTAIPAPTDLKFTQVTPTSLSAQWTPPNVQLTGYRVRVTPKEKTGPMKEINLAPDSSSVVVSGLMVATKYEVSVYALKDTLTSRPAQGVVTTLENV

B1: F8(scFv)-mIL9-F8(scFv): murine IL9 conjugated at N- and C-terminus to an F8 scFv via 10 amino acid linker, CrAb format; SEQ ID NO: 17 (protein)
chain: EVQLLESGGGLVQPGGSLRLSCAASGFTFSLFTMSWVRQAPGKGLEWVSAISGSGGSTYYADSVKGRFTISRDNSKNTLYLQMNSLRAEDTAVYYCAKSTHLYLFDYWGQGTLVTVSSGGGGSGGGGSGGGGEIVLTQSPGTLSLSPGERATLSCRASQSVSMPFLAWYQQKPGQAPRLLIYGASSRATGIPDRFSGSGSGTDFTLTISRLEPEDFAVYYCQQMRGRPPTFGQGTKVEIKSGGSGSGGGGQRCSTTWGIRDTNYLIENLKDDPPSKCSCSGNVTSCLCLSVPTDDCTTPCYREGLLQLTNATQKSRLLPVFHRVKRIVEVLKNITCPSFSCEKPCNQTMAGNTLSFLKSLLGTFQKTEMQRQKSRPSGGSGSGGGGEVQLLESGGGLVQPGGSLRLSCAASGFTFSLFTMSWVRQAPGKGLEWVSAISGSGGSTYYADSVKGRFTISRDNSKNTLYLQMNSLRAEDTAVYYCAKSTHLYLFDYWGQGTLVTVSSGGGGSGGGGSGGGGEIVLTQSPGTLSLSPGERATLSCRASQSVSMPFLAWYQQKPGQAPRLLIYGASSRATGIPDRFSGSGSGTDFTLTISRLEPEDFAVYYCQQMRGRPPTFGQGTKVEIK
modifications: F8(scFv)-mIL9-F8(scFv) (“CrAb” format)
For B1, in data set [1], the “apparent KD” value is “in the nM range”. Further, in data set [2], the “increase in melting temperature compared with diabody formats F8(db)-mIL9 and mIL9-F8(db)” value was ~3 °C. Besides, in data set [3] (3 cycles of freeze and thawing), the “stability to freeze and thawing (protein concentration, SEC profile, SDS-PAGE)” value is listed as “no loss of concentration, no changes in the size exclusion profile or SDS-PAGE analysis; also recorded: no loss of concentration”. Moreover, the “thermal stability over time (protein concentration, SEC profile, SDS-PAGE)” value is on record as “no loss of concentration, no changes in the size exclusion profile or SDS-PAGE analysis; also recorded: no loss of concentration” in data set [3] (incubated at 4° for up to 7 days) and “no loss of concentration, no changes in the size exclusion profile or SDS-PAGE analysis; also recorded: no loss of concentration” in data set [3] (incubated at 37° C. for up to 7 days). Besides, the “treatment effects relative to MACI (result in words)” value in data set [4] (MACI 15 mg/kg per os once daily day 14 to 28) was “at least comparable”. Besides, in data set [4] (in contrast to untargeted KSF(scFv)-mIL9-KSF(scFv), 200 μg/injection i.v. days 14, 16, 18), the “pressure values in the right ventricle (result in words)” value is on record as “significantly reduce”. In addition, the “echocardiographic signs of right ventricular load and dysfunction (result in words)” value was “significantly improved the majority” in data set [5] and “significantly improved a variety” in data set [7]. Further, the “pressure values in the right ventricle, RVPsys (result in words)” value in data set [6] is given as “significantly reduced”.

These data come from patent US20230285585A1, “TREATMENT OF PULMONARY HYPERTENSION” (PHILOGEN S.P.A., priority 2020, published 2023).
